# According to article PMC5498027:
# Where a chain is given by its changes, count along the chain named. Names and notes keep the numbering of the source.
# B1: human Kif5A, first 560 amino acids, wild type, fused to EGFP and a C-terminal 6xHIS tag, Q12840 S203C (protein)
# chain: MAETNNECSIKVLCRFRPLNQAEILRGDKFIPIFQGDDSVVIGGKPYVFDRVFPPNTTQEQVYHACAMQIVKDVLAGYNGTIFAYGQTSSGKTHTMEGKLHDPQLMGIIPRIARDIFNHIYSMDENLEFHIKVSYFEIYLDKIRDLLDVTKTNLSVHEDKNRVPFVKGCTERFVSSPEEILDVIDEGKSNRHVAVTNMNEHSCRSHSIFLINIKQENMETEQKLSGKLYLVDLAGSEKVSKTGAEGAVLDEAKNINKSLSALGNVISALAEGTKSYVPYRDSKMTRILQDSLGGNCRTTMFICCSPSSYNDAETKSTLMFGQRAKTIKNTASVNLELTAEQWKKKYEKEKEKTKAQKETIAKLEAELSRWRNGENVPETERLAGEEAALGAELCEETPVNDNSSIVVRIAPEERQKYEEEIRRLYKQLDDKDDEINQQSQLIEKLKQQMLDQEELLVSTRGDNEKVQRELSHLQSENDAAKDEVKEVLQALEELAVNYDQKSQEVEEKSQQNQLLVDELSQKVATMLSLESELQRLQEVSGHQRKRIAEVLNGLMKDLSE
# B2: human Kif5A, first 560 amino acids, wild type, fused to EGFP and a C-terminal 6xHIS tag, Q12840 R204W (protein)
# chain: B1 chain with C203S, R204W
# B3: human Kif5A, first 560 amino acids, wild type, fused to EGFP and a C-terminal 6xHIS tag, Q12840 R204Q (protein)
# chain: B1 chain with C203S, R204Q
# B4: human Kif5A, first 560 amino acids, wild type, fused to EGFP and a C-terminal 6xHIS tag, Q12840 E251K (protein)
# chain: B1 chain with C203S, E251K
# B5: human Kif5A, first 560 amino acids, wild type, fused to EGFP and a C-terminal 6xHIS tag, Q12840 S202N (protein)
# chain: B1 chain with S202N, C203S
# B6: human Kif5A, first 560 amino acids, wild type, fused to EGFP and a C-terminal 6xHIS tag, Q12840 M198T (protein)
# chain: B1 chain with M198T, C203S
# Target: T1, taxol-stabilized microtubules polymerized from bovine brain tubulin, Q6B856
# Test: MT pelleting assay (western blot densitometry)
# Conditions: chain shown with the change; 5 mM AMPPNP; 2 µM tubulin; read off a plot
# T1 sequence (chain, as listed by the source, chain 1 of 2): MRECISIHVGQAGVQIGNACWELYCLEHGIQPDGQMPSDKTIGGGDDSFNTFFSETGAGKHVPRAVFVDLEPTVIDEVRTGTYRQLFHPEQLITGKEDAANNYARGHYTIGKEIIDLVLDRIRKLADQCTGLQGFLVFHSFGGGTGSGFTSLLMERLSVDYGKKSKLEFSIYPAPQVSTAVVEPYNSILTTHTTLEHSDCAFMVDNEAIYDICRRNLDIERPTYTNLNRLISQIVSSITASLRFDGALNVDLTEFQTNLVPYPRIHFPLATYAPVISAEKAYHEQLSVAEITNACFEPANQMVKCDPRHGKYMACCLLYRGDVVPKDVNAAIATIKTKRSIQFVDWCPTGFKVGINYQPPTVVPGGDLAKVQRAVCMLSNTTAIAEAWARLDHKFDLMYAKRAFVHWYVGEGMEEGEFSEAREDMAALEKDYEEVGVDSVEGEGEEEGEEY
# T1 sequence (Q6B856 whole entry, chain 2 of 2): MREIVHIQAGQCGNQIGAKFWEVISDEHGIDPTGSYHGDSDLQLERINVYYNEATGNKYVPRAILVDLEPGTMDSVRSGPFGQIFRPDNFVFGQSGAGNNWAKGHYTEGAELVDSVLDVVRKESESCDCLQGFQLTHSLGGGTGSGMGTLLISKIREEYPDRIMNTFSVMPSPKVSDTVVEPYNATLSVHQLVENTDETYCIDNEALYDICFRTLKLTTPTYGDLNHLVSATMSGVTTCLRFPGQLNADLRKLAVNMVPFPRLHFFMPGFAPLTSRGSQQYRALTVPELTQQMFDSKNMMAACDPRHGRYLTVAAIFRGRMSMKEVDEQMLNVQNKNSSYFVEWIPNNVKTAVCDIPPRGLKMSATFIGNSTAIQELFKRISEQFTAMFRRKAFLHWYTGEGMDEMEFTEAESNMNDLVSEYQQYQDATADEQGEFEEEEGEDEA
row,Binder,response (fraction Kif5A bound)
1,B1,0.7
2,B2,0.44
3,B3,0.8
4,B4,0.56
5,B5,0.9
6,B6,0.94

# Same assay, conditions: chain shown with the change; 5 mM AMPPNP; 4 µM tubulin; read off a plot
row,Binder,response (fraction Kif5A bound)
1,B1,0.83
2,B2,0.41
3,B3,0.73
4,B4,0.63
5,B5,0.91
6,B6,0.95

# Same assay, conditions: chain shown with the change; 5 mM AMPPNP; 8 µM tubulin; read off a plot
row,Binder,response (fraction Kif5A bound)
1,B1,0.8
2,B2,0.36
3,B3,0.76
4,B4,0.73
5,B5,0.95
6,B6,0.94

# Target: T1, taxol-stabilized microtubules …
# Test: MT pelleting assay (western blot densitometry), fitted curve
# Conditions: chain shown with the change; 5 mM AMPPNP; fitted curve read at 8 µM tubulin; parent: est. 0.95; read off a plot
row,Binder,response (fraction Kif5A bound)
1,B1,0.86
2,B2,0.47
3,B3,0.79
4,B4,0.74
5,B5,1
6,B6,1
